Reference: the supplement of paper PMC11196671

Columns and labels:
[1] = PET hydrolysis product formed (TPA+MHET+BHET, UV-Vis) per mg enzyme (mmol/mg enzyme); higher = more PET depolymerisation activity; extreme values may be limits of the assay; conditions: 2 h
Method: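 Purified PET hydrolases (His-SUMO cleaved, E. coli C41(DE3) small-scale expression), 2.5 ug enzyme on 3.5 mg amorphous PET film (aFilm) or crystalline PET powder (cryPow) in 0.5 mL of 50 mM buffer (NaCitrate pH 4.5/5.5, NaPhosphate 6.5/7.5, glycine 8.5/9.5) at 60 or 70 C with shaking for 2 h. Soluble aromatic products (TPA+MHET+BHET) were quantified by UV-Vis at 260/280 nm, blank-subtracted against the no-enzyme control, and normalised per mg enzyme; duplicate reactions.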

[2] = MHET released, HPLC; higher = more MHET released; extreme values may be limits of the assay; conditions: 24 h
Method: (§1)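 Purified PET hydrolases, 2.5 ug enzyme on 3.5 mg amorphous PET film (aFilm) or crystalline PET powder (cryPow) in 0.5 mL of 50 mM buffer (NaCitrate pH 4.5/5.5, NaPhosphate 6.5/7.5, glycine 8.5/9.5) at 60 or 70 C with shaking for 24 h. Total aromatic product by UV-Vis (260/280 nm, blank-subtracted, normalised per mg enzyme) and individual TPA, MHET, BHET concentrations by UHPLC-DAD at 240 nm; duplicate reactions.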

[3] = terephthalic acid (TPA) released, HPLC; higher = more TPA released; extreme values may be limits of the assay; conditions: 24 h
Method: as §1

[4] = BHET released, HPLC; higher = more BHET released; extreme values may be limits of the assay; conditions: 24 h
Method: as §1

SNPYQRGPNPTRSALTATGPFSVATYTVSRLLVSGFGGGVIYYPTGTSLTFGGIAMSPGYTADASSLAWLGRRLASHGFVVLVINTNSRFDGPDSRARQLSAALNYLRTSSPSAVRARLDANRLAVAGHSMGGGGTLRIAEQNPSLKAAVPLTPWHPDKTFNTSVPVLIVGAQADTVAPVSQHAIPFYQNLPSTTPKVYVELCNASHIAPNSPNAAISVYTISWMKLWVDNDTRYRQFLCNVNDPALCDFRTNNRHCQ [LCC-ICCG I6M]
Conditions | BHET released, [4] [mM] | MHET released, [2] [mM] | PET hydrolysis product formed, [1] | terephthalic acid, [3] [mM]
PET substrate: aFilm, 60 °C, pH 4.5 | 0 | 0.067 | 0 | 0.104
PET substrate: aFilm, 60 °C, pH 5.5 | 0.00212 | 0.339 | 0.0198 | 0.39
PET substrate: aFilm, 60 °C, pH 6.5 | 0 | 0.534 | 0.0378 | 0.499
PET substrate: aFilm, 60 °C, pH 7.5 | 0.0371 | 3.6 | 0.0723 | 2.85
PET substrate: aFilm, 60 °C, pH 8.5 | 0.00219 | 0.333 | 0.0336 | 0.541
PET substrate: aFilm, 60 °C, pH 9.5 | 0 | 1.14 | 0.0585 | 1.37
PET substrate: aFilm, 70 °C, pH 4.5 | 0 | 0 | 0 | 0
PET substrate: aFilm, 70 °C, pH 5.5 | 0.00615 | 0.236 | 0.0242 | 0.275
PET substrate: aFilm, 70 °C, pH 6.5 | 0 | 0.211 | 0.057 | 0.246
PET substrate: aFilm, 70 °C, pH 7.5 | 0 | 1.51 | 0.149 | 1.37
PET substrate: aFilm, 70 °C, pH 8.5 | 0 | 0.164 | 0.021 | 0.209
PET substrate: aFilm, 70 °C, pH 9.5 | 0 | 0.409 | 0.0849 | 1.33
PET substrate: cryPow, 60 °C, pH 4.5 | 0.00411 | 0.0591 | 0.0118 | 0.0328
PET substrate: cryPow, 60 °C, pH 5.5 | 0 | 0.178 | 0.031 | 0.102
PET substrate: cryPow, 60 °C, pH 6.5 | 0 | 0.22 | 0.0457 | 0.105
PET substrate: cryPow, 60 °C, pH 7.5 | 0 | 0.206 | 0.035 | 0.116
PET substrate: cryPow, 60 °C, pH 8.5 | 0 | 0.113 | 0.0317 | 0.0874
PET substrate: cryPow, 60 °C, pH 9.5 | 0 | 0.0594 | 0.0174 | 0.263
PET substrate: cryPow, 70 °C, pH 4.5 | 0 | 0 | 0 | 0
PET substrate: cryPow, 70 °C, pH 5.5 | 0 | 0.0931 | 0.0164 | 0.0482
PET substrate: cryPow, 70 °C, pH 6.5 | 0 | 0.136 | 0.0289 | 0.0691
PET substrate: cryPow, 70 °C, pH 7.5 | 0 | 0.275 | 0.0329 | 0.288
PET substrate: cryPow, 70 °C, pH 8.5 | 0 | 0.13 | 0.0203 | 0.1
PET substrate: cryPow, 70 °C, pH 9.5 | 0 | 0.0223 | 0.0239 | 0.25

SNPYQRGPNPTRSALTADGPFSVRTYTISRLSVSGFGGGVIYYPTGTSLTFGGIAMSPGYTADASSLAWLGRRLASHGFVVLVINTNSRFDGPDSRASQLSAALNYLRTSSPSAVRARLDANRLAVAGHSMGGGGTLRIAEQNPSLKAAVPLTPWHTDKTFNTSVPVLIVGAEADTVAPVSQHAIPFYQNLPSTTPKVYVELCNASHIAPNSPNAAISVYTISWMKLWVDNDTRYRQFLCNVNDPALCDFRTNNRHCQ [LCC-ICCG RIP]
Conditions | BHET released, [4] [mM] | MHET released, [2] [mM] | PET hydrolysis product formed, [1] | terephthalic acid, [3] [mM]
PET substrate: aFilm, 60 °C, pH 4.5 | 0.00297 | 0.0627 | 0 | 0.0858
PET substrate: aFilm, 60 °C, pH 5.5 | 0.00225 | 0.19 | 0.0147 | 0.202
PET substrate: aFilm, 60 °C, pH 6.5 | 0 | 0.477 | 0.0276 | 0.423
PET substrate: aFilm, 60 °C, pH 7.5 | 0.0189 | 1.93 | 0.0697 | 1.96
PET substrate: aFilm, 60 °C, pH 8.5 | 0.00205 | 0.309 | 0.0326 | 0.346
PET substrate: aFilm, 60 °C, pH 9.5 | 0.0202 | 1.34 | 0.0672 | 1.27
PET substrate: aFilm, 70 °C, pH 4.5 | 0 | 0.00485 | 0 | 0.00741
PET substrate: aFilm, 70 °C, pH 5.5 | 0.00382 | 0.23 | 0.0525 | 0.255
PET substrate: aFilm, 70 °C, pH 6.5 | 0 | 0.352 | 0.0606 | 0.361
PET substrate: aFilm, 70 °C, pH 7.5 | 0.0465 | 2.36 | 0.151 | 1.63
PET substrate: aFilm, 70 °C, pH 8.5 | 0 | 0.217 | 0.0612 | 0.2235
PET substrate: aFilm, 70 °C, pH 9.5 | 0 | 0.896 | 0.175 | 1.66
PET substrate: cryPow, 60 °C, pH 4.5 | 0.00464 | 0.0685 | 0.011 | 0.0388
PET substrate: cryPow, 60 °C, pH 5.5 | 0 | 0.1986 | 0.0235 | 0.0956
PET substrate: cryPow, 60 °C, pH 6.5 | 0 | 0.257 | 0.0304 | 0.113
PET substrate: cryPow, 60 °C, pH 7.5 | 0 | 0.292 | 0.0711 | 0.147
PET substrate: cryPow, 60 °C, pH 8.5 | 0 | 0.186 | 0.0405 | 0.121
PET substrate: cryPow, 60 °C, pH 9.5 | 0 | 0.0905 | 0.0143 | 0.307
PET substrate: cryPow, 70 °C, pH 4.5 | 0 | 0.0111 | 0 | 0.00368
PET substrate: cryPow, 70 °C, pH 5.5 | 0.00217 | 0.10965 | 0.0166 | 0.057
PET substrate: cryPow, 70 °C, pH 6.5 | 0 | 0.2013 | 0.0257 | 0.0917
PET substrate: cryPow, 70 °C, pH 7.5 | 0 | 0.367 | 0.045 | 0.322
PET substrate: cryPow, 70 °C, pH 8.5 | 0 | 0.164 | 0.0206 | 0.118
PET substrate: cryPow, 70 °C, pH 9.5 | 0 | 0.0678 | 0.0257 | 0.4635
